Test results reported in paper PMC8253979, “The C-terminal tail extension of myosin 16 acts as a molten globule, including intrinsically disordered regions, and interacts with the N-terminal ankyrin” (The Journal of Biological Chemistry, 2021).

How the values were obtained:
Details in all cases: both partners purified
[1] = molecular target: T1, myosin 16 C-terminal tail (Myo16Tail), His6-tagged, with the IQ motif (Rattus norvegicus, UniProt Q9ERC1 1146-1912); experiment: fluorescence polarisation; steady-state fluorescence anisotropy; Alexa568–Myo16Ank fixed (1.2 μM with Myo16Tail, 1 μM with Myo16Tail (−IQ)), tail construct titrated; λex 578 nm, λem 601 nm; quadratic binding equation (Equation 1)
T1 construct: Myosin 16 (Myo16b isoform, 1912 aa), Rattus norvegicus, UniProt Q9ERC1, residues 1146-1912: IQ motif, NHM, proline-rich region and C-terminal element; cloned into pFastBac; No removal of the His6 tag is described; also called His6–Myo16Tail; C-terminal tail extension of Myo16b; source: baculovirus/Sf9, purified under denaturing conditions (6 M GuHCl, 8 M urea, Ni-NTA), renatured by dialysis
T1 sequence (looked up): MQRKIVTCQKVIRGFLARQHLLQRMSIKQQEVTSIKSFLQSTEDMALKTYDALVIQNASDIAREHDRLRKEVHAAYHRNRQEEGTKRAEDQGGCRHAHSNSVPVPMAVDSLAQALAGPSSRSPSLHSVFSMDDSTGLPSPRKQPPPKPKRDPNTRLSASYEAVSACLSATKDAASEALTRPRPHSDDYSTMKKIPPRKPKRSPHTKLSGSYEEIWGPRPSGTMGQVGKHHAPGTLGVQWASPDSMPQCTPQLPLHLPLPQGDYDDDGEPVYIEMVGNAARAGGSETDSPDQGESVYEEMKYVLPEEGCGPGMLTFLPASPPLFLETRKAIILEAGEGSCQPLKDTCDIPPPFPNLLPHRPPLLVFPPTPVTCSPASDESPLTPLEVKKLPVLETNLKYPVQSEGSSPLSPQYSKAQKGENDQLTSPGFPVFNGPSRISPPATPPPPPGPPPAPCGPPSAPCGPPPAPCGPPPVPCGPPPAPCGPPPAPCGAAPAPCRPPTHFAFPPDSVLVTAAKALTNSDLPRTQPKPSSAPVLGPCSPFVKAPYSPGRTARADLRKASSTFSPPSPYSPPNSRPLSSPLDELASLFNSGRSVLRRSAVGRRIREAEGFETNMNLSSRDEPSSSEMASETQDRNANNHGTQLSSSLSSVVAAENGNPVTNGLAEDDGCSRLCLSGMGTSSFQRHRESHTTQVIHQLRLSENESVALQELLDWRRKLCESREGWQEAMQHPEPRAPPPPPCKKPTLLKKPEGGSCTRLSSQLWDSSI

[2] = molecular target: T2, Myo16Tail without the IQ motif, Myo16Tail (−IQ), His6-tagged (Rattus norvegicus, UniProt Q9ERC1 1176-1912); experiment: as above
T2 construct: Myosin 16 (Myo16b isoform), Rattus norvegicus, UniProt Q9ERC1, residues 1176-1912 (tail without the IQ motif); Cloned into the pFastBac vector as m1; No removal of the His6 tag is described; also called His6–Myo16Tail (−IQ); source: baculovirus/Sf9, purified by the denaturing procedure (Ni-NTA), renatured
T2 sequence (looked up): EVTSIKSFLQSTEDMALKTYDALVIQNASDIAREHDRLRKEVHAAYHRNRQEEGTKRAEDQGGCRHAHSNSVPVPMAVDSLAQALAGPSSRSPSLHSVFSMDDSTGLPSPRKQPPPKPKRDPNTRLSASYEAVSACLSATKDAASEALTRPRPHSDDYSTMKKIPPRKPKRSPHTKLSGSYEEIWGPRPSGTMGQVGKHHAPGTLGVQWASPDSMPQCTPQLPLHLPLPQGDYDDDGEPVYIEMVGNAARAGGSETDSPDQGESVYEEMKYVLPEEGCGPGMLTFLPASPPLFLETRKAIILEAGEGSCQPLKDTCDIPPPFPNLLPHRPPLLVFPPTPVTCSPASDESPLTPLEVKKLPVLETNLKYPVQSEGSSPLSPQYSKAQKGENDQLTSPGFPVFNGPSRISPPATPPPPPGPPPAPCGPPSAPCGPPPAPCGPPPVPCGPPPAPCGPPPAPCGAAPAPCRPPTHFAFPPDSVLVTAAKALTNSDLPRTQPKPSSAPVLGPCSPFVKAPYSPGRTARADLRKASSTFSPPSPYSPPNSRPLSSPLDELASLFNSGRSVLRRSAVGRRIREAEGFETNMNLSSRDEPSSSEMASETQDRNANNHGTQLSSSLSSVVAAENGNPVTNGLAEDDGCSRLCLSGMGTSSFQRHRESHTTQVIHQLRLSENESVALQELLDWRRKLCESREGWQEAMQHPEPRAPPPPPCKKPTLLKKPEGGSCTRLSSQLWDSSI

[3] = molecular target: T3, Alexa568-labelled synthesized rat myosin 16 IQ motif peptide (Alexa568–Myo16IQ) (Rattus norvegicus, UniProt Q9ERC1 1146-1175, Alexa Fluor C5 568 maleimide label, position not stated); experiment: fluorescence polarisation; steady-state fluorescence anisotropy; Alexa568–Myo16IQ fixed (1 μM), Myo16Ank titrated; λex 578 nm, λem 601 nm; quadratic binding equation (Equation 1)
T3 construct: Myosin 16 IQ motif, Rattus norvegicus, residues 1146-1175 (30 amino acids, MW 3.6385 kDa by mass spectrometry); source: synthetic peptide (GenScript)
T3 peptide (looked up): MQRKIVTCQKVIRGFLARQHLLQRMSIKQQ

| Binder | Kd [1] [µM] | Kd [2] [µM] | Kd [3] [µM] |
| --- | --- | --- | --- |
| Alexa568-labelled N-terminal ankyrin domain of myosin 16 (Alexa568–Myo16Ank) (domain or fragment, Alexa Fluor C5 568 maleimide label, position not stated) MEIDQCLLESLPLGQRQRLVRRMRCEQIKAYYEREKVFQKQEGLLKRIKPGKSQKVRFGLADMIQDAIIHHHDKEVLQLLKEGADPHTLVSSGGSLLHLCARYDNVFIAEVLIDRGVNVNHQDEDFWAPMHIACACDNPDIVLLLILAGANVLLQDVNGNIPLDYAVEGTESSAILLAYLDENGVDLNSLRQIKLQRPLSMLTDVRHFLSSGGDVNEKNDDGVTLLHMACASGYKEVVLLLLEHGGDLNGMDDGYWTPLHLAAKYGQTTLVKLLLAHQANPHLVNCNGEKPSDIAASESIEEMLLKAEIAWEERMKESPSVPSLAQEELYEEILHDLPELSSKLSPLVLPIAKQDSLLEKDIMFKDTTKGLCNQESQDGPPETSMVSSSSKPEQVQLTPP | 2.5 | 5.6 |  |
| N-terminal ankyrin domain of myosin 16 (Myo16Ank), unlabelled (domain or fragment) MEIDQCLLESLPLGQRQRLVRRMRCEQIKAYYEREKVFQKQEGLLKRIKPGKSQKVRFGLADMIQDAIIHHHDKEVLQLLKEGADPHTLVSSGGSLLHLCARYDNVFIAEVLIDRGVNVNHQDEDFWAPMHIACACDNPDIVLLLILAGANVLLQDVNGNIPLDYAVEGTESSAILLAYLDENGVDLNSLRQIKLQRPLSMLTDVRHFLSSGGDVNEKNDDGVTLLHMACASGYKEVVLLLLEHGGDLNGMDDGYWTPLHLAAKYGQTTLVKLLLAHQANPHLVNCNGEKPSDIAASESIEEMLLKAEIAWEERMKESPSVPSLAQEELYEEILHDLPELSSKLSPLVLPIAKQDSLLEKDIMFKDTTKGLCNQESQDGPPETSMVSSSSKPEQVQLTPP |  |  | 16 |
